From US20220025069A1 (Hoffmann-La Roche, published 2022)
Where two headings read alike, the source gives them in different places.

How the values were obtained:
[1] = target: T1, human 4-1BB (CD137), cell-surface-expressed on Jurkat-hu4-1BB-NFkB-luc2 reporter cell line (human, UniProt Q07011 24-186); experiment: cell-based or functional assay; set-up: AUC of activation curve, NFκB-luciferase in Jurkat-hu4-1BB-NFκB-luc2, crosslinking by WM-266-4 cells: unit not given beside the values
[2] = target: T2, human Fibroblast Activation Protein (FAP), cell-surface-expressed on NIH/3T3-huFAP clone 19 cells (human, UniProt Q12884 1-760); experiment: flow cytometry, NIH/3T3-huFAP clone 19 cells, gMFI curve
T2 construct: also called FAP-expressing cells
Method: (§1) Plates were incubated for 30 minutes at 4° C. and washed once with 200 μL, 4° C. cold DPBS buffer. […] Cells were washed twice with 200 μL 4° C. DPBS buffer and then resuspended in 50 μL/well DPBS containing 1% Formaldehyde for fixation. The same or the next day cells were resuspended in 100 μL FACS-buffer and acquired using MACSQuant Analyzer 10 (Miltenyi Biotec) or Canto II (BD).

[3] = target: T1, human 4-1BB (CD137), …; experiment: flow cytometry, Jurkat-hu4-1BB-NFkB-luc2 cells, gMFI curve
Method: (§2) For binding to cell-surface-expressed human 4-1BB (CD137) Jurkat-hu4-1BB-NFκB-luc2 reporter cell line (Promega, Germany) was used. […] Plates were incubated for 30 minutes at 4° C. and washed once with 200 μL 4° C. cold DPBS buffer. […] Cells were washed twice with 200 μL 4° C. FACS buffer and then resuspended in 50 μL/well DPBS containing 1% Formaldehyde for fixation. The same or the next day cells were resuspended in 100 μL FACS-buffer and acquired using MACSQuant Analyzer 10 (Miltenyi Biotec) or Cantoll (BD).

[4] = target: T2, human Fibroblast Activation Protein …; experiment: flow cytometry, NIH/3T3-huFAP clone 19 cells, PE anti-human Fc detection
Method: as §1

[5] = target: T1, human 4-1BB (CD137), …; experiment: cell-based or functional assay
[6] = target: T1, human 4-1BB (CD137), …; experiment: flow cytometry, Jurkat-hu4-1BB-NFkB-luc2 cells, PE anti-human Fc detection
Method: as §2

[7] = target: T1, human 4-1BB (CD137), …; experiment: cell-based or functional assay; remark: listed apart in the source
[8] = target: T1, human 4-1BB (CD137), …; experiment: cell-based or functional assay; set-up: unit not given beside the values
[9] = target: T1, human 4-1BB (CD137), …; experiment: flow cytometry, Jurkat-hu4-1BB-NFkB-luc2 cells, gMFI curve; remark: listed apart in the source
Method: (§3) For binding to cell-surface-expressed human 4-1BB (CD137) Jurkat-hu4-1BB-NFkB-luc2 reporter cell line (Promega, Germany) was used. […] Plates were incubated for 30 minutes at 4° C. and washed once with 200 μL 4° C. cold DPBS buffer. […] Cells were washed twice with 200 μL 4° C. FACS buffer and then resuspended in 50 DPBS containing 1% Formaldehyde for fixation.

[10] = target: T1, human 4-1BB (CD137), …; experiment: flow cytometry, Jurkat-hu4-1BB-NFkB-luc2 cells, PE anti-human Fc detection; remark: listed apart in the source
Method: as §3

Row | Binder | AUC of activation curve, NFκB-luciferase in Jurkat-hu4-1BB-NFκB-luc2, crosslinking by NIH/3T3-huFAP clone 19 cells [1] | AUC of activation curve, NFκB-luciferase in Jurkat-hu4-1BB-NFκB-luc2, crosslinking by WM-266-4 cells [1] | Area under the curve (AUC) of binding curve [2] | Area under the curve (AUC) of binding curve [3] | EC50 [4] [nM] | EC50 of activation curve, NFκB-luciferase in Jurkat-hu4-1BB-NFκB-luc2, crosslinking by NIH/3T3-huFAP clone 19 cells [5] [nM] | EC50 of activation curve, NFκB-luciferase in Jurkat-hu4-1BB-NFκB-luc2, crosslinking by WM-266-4 cells [5] [nM] | EC50 [6] [nM] | EC50 of activation curve, NFκB-luciferase in Jurkat-hu4-1BB-NFκB-luc2, crosslinking by KPL4 cells [7] [nM] | EC50 of activation curve, NFκB-luciferase in Jurkat-hu4-1BB-NFκB-luc2, crosslinking by NCI-N87 cells [7] [nM] | EC50 of activation curve, NFκB-luciferase in Jurkat-hu4-1BB-NFκB-luc2, crosslinking by SK-Br3 cells [7] [nM] | AUC of activation curve, NFκB-luciferase in Jurkat-hu4-1BB-NFκB-luc2, crosslinking by KPL4 cells [8] | AUC of activation curve, NFκB-luciferase in Jurkat-hu4-1BB-NFκB-luc2, crosslinking by NCI-N87 cells [8] | AUC of activation curve, NFκB-luciferase in Jurkat-hu4-1BB-NFκB-luc2, crosslinking by SK-Br3 cells [8] | Area under the curve (AUC) of binding curve [9] | EC50 [10] [nM]
1 | FAP (4B9) huIgG1 PG LALA antibody (antibody, V domains shown, the control is a human IgG1 with P329G, L234A, L235A (PG LALA)) VH: EVQLLESGGGLVQPGGSLRLSCAASGFTFSSYAMSWVRQAPGKGLEWVSAIIGSGASTYYADSVKGRFTISRDNSKNTLYLQMNSLRAEDTAVYYCAKGWFGGFNYWGQGTLVTVSS VL: EIVLTQSPGTLSLSPGERATLSCRASQSVTSSYLAWYQQKPGQAPRLLINVGSRRATGIPDRFSGSGSGTDFTLTISRLEPEDFAVYYCQQGIMLPPTFGQGTKVEIK | 521 | 384 | 30400 | 75 | 1.59 | – | – | – | – | – | – | – | – | – | – | –
2 | bispecific, monovalent 1+2 anti-FAP, anti-4-1BB lipocalin huIgG1 PGLALA antigen binding molecule (bispecific antibody, also called FAP (4B9) x 4-1BB lipocalin huIgG1 PG LALA 1+2; 1+2 FAP(4B9) x 4-1BB lipocalin huIgG1 PGLALA) heavy 1: DKTHTCPPCPAPEAAGGPSVFLFPPKPKDTLMISRTPEVTCVVVDVSHEDPEVKFNWYVDGVEVHNAKTKPREEQYNSTYRVVSVLTVLHQDWLNGKEYKCKVSNKALGAPIEKTISKAKGQPREPQVCTLPPSRDELTKNQVSLSCAVKGFYPSDIAVEWESNGQPENNYKTTPPVLDSDGSFFLVSKLTVDKSRWQQGNVFSCSVMHEALHNHYTQKSLSLSPGGGGGSGGGGSGGGGSQDSTSDLIPAPPLSKVPLQQNFQDNQFHGKWYVVGQAGNIRLREDKDPIKMMATIYELKEDKSYDVTMVKFDDKKCMYDIWTFVPGSQPGEFTLGKIKSFPGHTSSLVRVVSTNYNQHAMVFFKFVFQNREEFYITLYGRTKELTSELKENFIRFSKSLGLPENHIVFPVPIDQCIDG heavy 2: not shown light: EIVLTQSPGTLSLSPGERATLSCRASQSVTSSYLAWYQQKPGQAPRLLINVGSRRATGIPDRFSGSGSGTDFTLTISRLEPEDFAVYYCQQGIMLPPTFGQGTKVEIKRTVAAPSVFIFPPSDEQLKSGTASVVCLLNNFYPREAKVQWKVDNALQSGNSQESVTEQDSKDSTYSLSSTLTLSKADYEKHKVYACEVTHQGLSSPVTKSFNRGEC | 93200 | 37400 | 32500 | 681 | 2.88 | 0.02 | 0.07 | 2.39 | – | – | – | – | – | – | – | –
3 | 2+2 FAP(4B9) x 4-1BB lipocalin huIgG4 SP molecule (bispecific antibody, Comparison molecule; also called FAP (4B9) x 4-1BB lipocalin huIgG4 SP 2+2; FAP (4B9) anti-4-1BB lipocalin huIgG4 SP 2+2) heavy: not shown light: EIVLTQSPGTLSLSPGERATLSCRASQSVTSSYLAWYQQKPGQAPRLLINVGSRRATGIPDRFSGSGSGTDFTLTISRLEPEDFAVYYCQQGIMLPPTFGQGTKVEIKRTVAAPSVFIFPPSDEQLKSGTASVVCLLNNFYPREAKVQWKVDNALQSGNSQESVTEQDSKDSTYSLSSTLTLSKADYEKHKVYACEVTHQGLSSPVTKSFNRGEC | 55200 | 11700 | 21000 | 694 | 1.19 | 0.12 | 0.02 | 1.72 | – | – | – | – | – | – | – | –

Next, values leading:

Row | AUC of activation curve, NFκB-luciferase in Jurkat-hu4-1BB-NFκB-luc2, crosslinking by NIH/3T3-huFAP clone 19 cells [1] | AUC of activation curve, NFκB-luciferase in Jurkat-hu4-1BB-NFκB-luc2, crosslinking by WM-266-4 cells [1] | Area under the curve (AUC) of binding curve [2] | Area under the curve (AUC) of binding curve [3] | EC50 [4] [nM] | EC50 of activation curve, NFκB-luciferase in Jurkat-hu4-1BB-NFκB-luc2, crosslinking by NIH/3T3-huFAP clone 19 cells [5] [nM] | EC50 of activation curve, NFκB-luciferase in Jurkat-hu4-1BB-NFκB-luc2, crosslinking by WM-266-4 cells [5] [nM] | EC50 [6] [nM] | EC50 of activation curve, NFκB-luciferase in Jurkat-hu4-1BB-NFκB-luc2, crosslinking by KPL4 cells [7] [nM] | EC50 of activation curve, NFκB-luciferase in Jurkat-hu4-1BB-NFκB-luc2, crosslinking by NCI-N87 cells [7] [nM] | EC50 of activation curve, NFκB-luciferase in Jurkat-hu4-1BB-NFκB-luc2, crosslinking by SK-Br3 cells [7] [nM] | AUC of activation curve, NFκB-luciferase in Jurkat-hu4-1BB-NFκB-luc2, crosslinking by KPL4 cells [8] | AUC of activation curve, NFκB-luciferase in Jurkat-hu4-1BB-NFκB-luc2, crosslinking by NCI-N87 cells [8] | AUC of activation curve, NFκB-luciferase in Jurkat-hu4-1BB-NFκB-luc2, crosslinking by SK-Br3 cells [8] | Area under the curve (AUC) of binding curve [9] | EC50 [10] [nM] | Binder
4 | – | – | – | – | – | – | – | – | 0.19 | 0.15 | 0.33 | 11400 | 12100 | 3960 | 2100 | 6.95 | bispecific, monovalent 1+2 anti-HER2, anti-4-1BB lipocalin huIgG1 PGLALA antigen binding molecule (bispecific antibody, also called HER2 (TRAS) x 4-1BB lipocalin huIgG1 PG LALA 1+2; 1+2 HER2 x 4-1BB lipocalin huIgG1 PGLALA) heavy 1: DKTHTCPPCPAPEAAGGPSVFLFPPKPKDTLMISRTPEVTCVVVDVSHEDPEVKFNWYVDGVEVHNAKTKPREEQYNSTYRVVSVLTVLHQDWLNGKEYKCKVSNKALGAPIEKTISKAKGQPREPQVCTLPPSRDELTKNQVSLSCAVKGFYPSDIAVEWESNGQPENNYKTTPPVLDSDGSFFLVSKLTVDKSRWQQGNVFSCSVMHEALHNHYTQKSLSLSPGGGGGSGGGGSGGGGSQDSTSDLIPAPPLSKVPLQQNFQDNQFHGKWYVVGQAGNIRLREDKDPIKMMATIYELKEDKSYDVTMVKFDDKKCMYDIWTFVPGSQPGEFTLGKIKSFPGHTSSLVRVVSTNYNQHAMVFFKFVFQNREEFYITLYGRTKELTSELKENFIRFSKSLGLPENHIVFPVPIDQCIDG heavy 2: not shown light: not shown
5 | 65500 | 20400 | 28800 | 746 | 2.01 | 0.04 | 0.02 | 2.09 | – | – | – | – | – | – | – | – | bispecific, bivalent 2+2 anti-FAP, anti-4-1BB lipocalin huIgG1 PGLALA antigen binding molecule (bispecific antibody, also called FAP (4B9) x 4-1BB lipocalin huIgG1 PG LALA 2+2; 2+2 FAP(4B9) x 4-1BB lipocalin huIgG1 PGLALA) heavy: not shown light: EIVLTQSPGTLSLSPGERATLSCRASQSVTSSYLAWYQQKPGQAPRLLINVGSRRATGIPDRFSGSGSGTDFTLTISRLEPEDFAVYYCQQGIMLPPTFGQGTKVEIKRTVAAPSVFIFPPSDEQLKSGTASVVCLLNNFYPREAKVQWKVDNALQSGNSQESVTEQDSKDSTYSLSSTLTLSKADYEKHKVYACEVTHQGLSSPVTKSFNRGEC
